B1: 32716 IgM (CD123xCD3 IgM antibody) (bispecific antibody)
VH: QIQLVQSGPELKKPGETVKISCKASGYIFTNYGMNWVKQAPGKSFKWMGWINTYTGESTYSADFKGRFAFSLETSASTAYLHINDLKNEDTATYFCARSGGYDPMDYWGQGTSVTVSS
VL: DIVLTQSPASLAVSLGQRATISCRASESVDNYGNTFMHWYQQKPGQPPKLLIYRASNLESGIPARFSGSGSRTDFTLTINPVEADDVATYYCQQSNEDPPTFGAGTKLELK
J-chain: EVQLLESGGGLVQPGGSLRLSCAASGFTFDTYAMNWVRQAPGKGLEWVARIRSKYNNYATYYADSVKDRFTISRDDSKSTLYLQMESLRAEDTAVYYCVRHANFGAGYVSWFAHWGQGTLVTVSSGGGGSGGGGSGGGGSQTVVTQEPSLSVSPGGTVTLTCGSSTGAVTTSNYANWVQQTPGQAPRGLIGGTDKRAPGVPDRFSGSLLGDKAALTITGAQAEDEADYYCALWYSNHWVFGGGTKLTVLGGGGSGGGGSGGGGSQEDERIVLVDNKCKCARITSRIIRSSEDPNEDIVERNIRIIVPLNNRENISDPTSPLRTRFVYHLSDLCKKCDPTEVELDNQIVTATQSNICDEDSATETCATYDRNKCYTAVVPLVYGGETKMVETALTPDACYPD
notes: Pentameric IgM with J-chain; also called original mouse antibody
B2: 32716 IgG (antibody, V domains shown)
VH: QIQLVQSGPELKKPGETVKISCKASGYIFTNYGMNWVKQAPGKSFKWMGWINTYTGESTYSADFKGRFAFSLETSASTAYLHINDLKNEDTATYFCARSGGYDPMDYWGQGTSVTVSS
VL: DIVLTQSPASLAVSLGQRATISCRASESVDNYGNTFMHWYQQKPGQPPKLLIYRASNLESGIPARFSGSGSRTDFTLTINPVEADDVATYYCQQSNEDPPTFGAGTKLELK
notes: Parental mouse variable domains cloned into human IgG format; detected with anti-human kappa; also called original mouse antibody
B3: h32716-1-1 IgM (CD123xCD3 IgM antibody) (bispecific antibody)
VH: QVQLVQSGAEVKKPGSSVKVSCKASGYIFTNYGMNWVRQAPGQGLEWMGWINTYTGESTYSADFKGRVTITADESTSTAYMELSSLRSEDTAVYYCARSGGYDPMDYWGQGTLVTVSS
VL: DIVMTQSPDSLAVSLGERATINCRASESVDNYGNTFMHWYQQKPGQPPKLLIYRASNLESGVPDRFSGSGSGTDFTLTISSLQAEDVAVYYCQQSNEDPPTFGQGTRLEIK
chain: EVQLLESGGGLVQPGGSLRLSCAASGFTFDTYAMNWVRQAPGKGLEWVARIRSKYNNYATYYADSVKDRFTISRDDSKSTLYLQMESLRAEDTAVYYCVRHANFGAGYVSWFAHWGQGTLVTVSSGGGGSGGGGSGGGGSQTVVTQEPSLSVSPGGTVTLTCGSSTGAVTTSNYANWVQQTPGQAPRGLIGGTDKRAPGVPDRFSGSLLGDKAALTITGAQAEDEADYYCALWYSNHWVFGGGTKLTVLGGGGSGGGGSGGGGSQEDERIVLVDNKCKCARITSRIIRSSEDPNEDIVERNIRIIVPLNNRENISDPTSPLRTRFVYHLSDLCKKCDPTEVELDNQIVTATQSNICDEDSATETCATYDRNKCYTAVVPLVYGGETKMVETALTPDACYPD
notes: Pentameric IgM with modified J-chain
B4: h32716-2-1 IgG (antibody, V domains shown)
VH: QVQLVQSGAEVKKPGSSVKVSCKASGYIFTNYGMNWVKQAPGQGLEWMGWINTYTGESTYSADFKGRFTFTLDESTSTAYMELSSLRSEDTAVYYCARSGGYDPMDYWGQGTLVTVSS
VL: DIVMTQSPDSLAVSLGERATINCRASESVDNYGNTFMHWYQQKPGQPPKLLIYRASNLESGVPDRFSGSGSGTDFTLTISSLQAEDVAVYYCQQSNEDPPTFGQGTRLEIK
notes: Human IgG format
B5: h32716-3-1 IgG (antibody, V domains shown)
VH: QVQLVQSGAEVKKPGSSVKVSCKASGYIFTNYGMNWVKQAPGQGFKWMGWINTYTGESTYSADFKGRFTFTLDESTSTAYMELSSLRSEDTAVYYCARSGGYDPMDYWGQGTLVTVSS
VL: DIVMTQSPDSLAVSLGERATINCRASESVDNYGNTFMHWYQQKPGQPPKLLIYRASNLESGVPDRFSGSGSGTDFTLTISSLQAEDVAVYYCQQSNEDPPTFGQGTRLEIK
notes: Human IgG format
B6: h32716-1-1 IgG (antibody, V domains shown)
VH: QVQLVQSGAEVKKPGSSVKVSCKASGYIFTNYGMNWVRQAPGQGLEWMGWINTYTGESTYSADFKGRVTITADESTSTAYMELSSLRSEDTAVYYCARSGGYDPMDYWGQGTLVTVSS
VL: DIVMTQSPDSLAVSLGERATINCRASESVDNYGNTFMHWYQQKPGQPPKLLIYRASNLESGVPDRFSGSGSGTDFTLTISSLQAEDVAVYYCQQSNEDPPTFGQGTRLEIK
notes: Human IgG format
B7: h32716-4-2 IgM (CD123xCD3 IgM antibody) (bispecific antibody)
VH: QVQLVQSGPELKKPGASVKVSCKASGYIFTNYGMNWVRQAPGQGLEWMGWINTYTGESTYSADFKGRFVFSLDTSVSTAYLQISSLKAEDTAVYYCARSGGYDPMDYWGQGTLVTVSS
VL: DIQMTQSPSSLSASVGDRVTITCRASESVDNYGNTFMHWYQQKPGKAPKLLIYRASNLESGVPSRFSGSGSGTDFTFTISSLQPEDIATYYCQQSNEDPPTFGQGTKVEIK
chain: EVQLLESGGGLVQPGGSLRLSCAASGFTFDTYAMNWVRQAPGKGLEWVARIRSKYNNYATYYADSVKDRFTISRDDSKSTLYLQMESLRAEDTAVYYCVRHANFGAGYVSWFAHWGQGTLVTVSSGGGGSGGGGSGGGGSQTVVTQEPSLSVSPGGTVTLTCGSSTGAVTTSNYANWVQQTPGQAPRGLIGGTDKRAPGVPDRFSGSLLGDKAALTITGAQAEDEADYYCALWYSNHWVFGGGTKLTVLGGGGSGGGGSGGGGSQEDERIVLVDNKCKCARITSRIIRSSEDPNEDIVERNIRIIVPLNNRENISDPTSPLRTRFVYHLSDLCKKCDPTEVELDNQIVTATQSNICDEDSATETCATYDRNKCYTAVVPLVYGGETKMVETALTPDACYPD
notes: as for B3
B8: h32716-5-2 IgG (antibody, V domains shown)
VH: QVQLVQSGPELKKPGASVKVSCKASGYIFTNYGMNWVKQAPGQGLEWMGWINTYTGESTYSADFKGRFVFSLDTSVSTAYLQISSLKAEDTAVYYCARSGGYDPMDYWGQGTLVTVSS
VL: DIQMTQSPSSLSASVGDRVTITCRASESVDNYGNTFMHWYQQKPGKAPKLLIYRASNLESGVPSRFSGSGSGTDFTFTISSLQPEDIATYYCQQSNEDPPTFGQGTKVEIK
notes: Human IgG format
B9: h32716-4-2 IgG (antibody, V domains shown)
VH: QVQLVQSGPELKKPGASVKVSCKASGYIFTNYGMNWVRQAPGQGLEWMGWINTYTGESTYSADFKGRFVFSLDTSVSTAYLQISSLKAEDTAVYYCARSGGYDPMDYWGQGTLVTVSS
VL: DIQMTQSPSSLSASVGDRVTITCRASESVDNYGNTFMHWYQQKPGKAPKLLIYRASNLESGVPSRFSGSGSGTDFTFTISSLQPEDIATYYCQQSNEDPPTFGQGTKVEIK
notes: Human IgG format
B10: h32716-6-2 IgG (antibody, V domains shown)
VH: QVQLVQSGPELKKPGASVKVSCKASGYIFTNYGMNWVKQAPGQGFKWMGWINTYTGESTYSADFKGRFVFSLDTSVSTAYLQISSLKAEDTAVYYCARSGGYDPMDYWGQGTLVTVSS
VL: DIQMTQSPSSLSASVGDRVTITCRASESVDNYGNTFMHWYQQKPGKAPKLLIYRASNLESGVPSRFSGSGSGTDFTFTISSLQPEDIATYYCQQSNEDPPTFGQGTKVEIK
notes: Human IgG format

How the values were obtained:
[1] = target: T1, recombinant human CD123 protein (CD123, Fc-Fusion (IgG1) Avi-Tag, Biotin-Labeled, BPS Bioscience Cat.100068-2) (human, UniProt P26951 19-305, limits assumed, biotin-labeled (Avi-Tag)); test: BLI (Octet), CD123-Fc on anti-human Fc sensors, IgM in solution
T1 construct: Bought protein; not shown: IgG1 Fc; Avi-Tag
T1 sequence (looked up): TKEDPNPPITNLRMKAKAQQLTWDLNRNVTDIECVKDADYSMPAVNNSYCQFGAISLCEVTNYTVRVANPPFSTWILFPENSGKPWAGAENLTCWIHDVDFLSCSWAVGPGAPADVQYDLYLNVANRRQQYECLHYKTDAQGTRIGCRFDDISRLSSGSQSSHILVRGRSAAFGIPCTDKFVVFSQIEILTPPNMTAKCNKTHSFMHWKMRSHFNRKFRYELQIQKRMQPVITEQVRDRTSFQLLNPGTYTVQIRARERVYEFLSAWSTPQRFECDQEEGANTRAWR

Human CD123 = target: T2, Human CD123; test: ELISA, plate coated with 0.2 ug/mL recombinant human CD123 (Sino Biological), detection with HRP anti-human kappa, chemiluminescence
T2 construct: It is a different reagent from m11 (Acro, His) and m13 (BPS, Fc); also called recombinant human CD123 protein (Sino Biological 10518-H08H-50); not shown: The tag of the vendor's product
T2 chain: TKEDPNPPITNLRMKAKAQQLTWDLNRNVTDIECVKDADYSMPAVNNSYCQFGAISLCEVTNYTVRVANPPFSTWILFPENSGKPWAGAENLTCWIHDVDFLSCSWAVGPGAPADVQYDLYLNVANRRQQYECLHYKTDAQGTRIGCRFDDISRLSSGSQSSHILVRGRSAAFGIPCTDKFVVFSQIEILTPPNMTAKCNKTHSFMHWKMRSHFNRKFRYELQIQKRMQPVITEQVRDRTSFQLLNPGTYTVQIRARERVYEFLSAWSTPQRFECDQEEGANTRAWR
Protocol: 96-well white polystyrene ELISA plates (Pierce 15042) were coated with 100 μL per well of 0.2 μg/mL recombinant human CD123 protein (Sino Biological 10518-H08H-50) or 0.5 μg/ml recombinant human CD3ε protein (Acro Biosystems, CDE-H5256-100) overnight at 4° C. Plates were then washed 5 times with 0.05% PBS-Tween and blocked with 2% BSA-PBS. After blocking, 100 μL of serial dilutions of CD123×CD3 IgM antibodies, standards, and controls were added to the wells and incubated at room temperature for 2 hours. The plates were then washed 10 times and incubated with HRP conjugated mouse anti-human kappa (Southern Biotech, 9230-05. 1:6000 diluted in 2% BSA-PBS) for 30 min. After 10 final washes using 0.05% PBS-Tween, the plates were read out using SuperSignal chemiluminescent substrate (ThermoFisher, 37070). Luminescent data were collected on an EnVision plate reader (Perkin-Elmer) and analyzed with GraphPad Prism using a 4-parameter logistic model.

[2] = target: T3, recombinant human CD123 protein (CD123)-His Acrobio #ILA-H52H6 (human, UniProt P26951 19-305); test: BLI (Octet), CD123-His on anti-penta-His sensors, IgG in solution, 1:1 global fit
T3 construct: Bought protein; also called hu IL-3R alpha (CD123)-His; not shown: His tag
T3 sequence (looked up): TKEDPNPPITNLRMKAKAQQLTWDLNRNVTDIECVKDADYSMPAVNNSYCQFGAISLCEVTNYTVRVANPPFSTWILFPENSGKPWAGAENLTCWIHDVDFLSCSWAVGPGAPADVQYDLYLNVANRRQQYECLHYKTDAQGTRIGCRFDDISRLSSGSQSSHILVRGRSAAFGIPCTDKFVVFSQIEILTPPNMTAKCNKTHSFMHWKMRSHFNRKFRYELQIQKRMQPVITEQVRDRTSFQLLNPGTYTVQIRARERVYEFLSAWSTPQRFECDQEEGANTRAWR
Protocol: PBST (1×PBS+1% BSA+0.05% Tween-20) buffer was used as Antibody/CD123 dilution and sensor hydration buffer. The experiment followed a five-step sequential assay at 24° C. First, biosensors were hydrated for 10 minutes. Samples and buffer were applied in 384-well plate. After initial baseline for 60 s, sensors were loaded with 7 nM hu IL-3R alpha (CD123)-His Acrobio #ILA-H52H6. The biosensors were dipped into PBST for 20 s to reach baseline, then incubated for 420 s with 2-fold serial diluted anti-CD123 antibodies starting at 10 nM for association, followed by 900 s in PBST for dissociation. Results were analyzed by ForteBio Data Analysis software 9.0 using 1:1 global fit model.

Binder	Kd [1] [nM]	koff [1] [s⁻¹]	kon [1] [M⁻¹ s⁻¹]	EC50 (read off the curve) (Human CD123) [nM]	Kd [2] [nM]	koff [2] [s⁻¹]	kon [2] [M⁻¹ s⁻¹]
B1	< 0.001	< 1e-07	4.1e+06	~0.03			
B2					0.44	0.0003	710000
B3	< 0.001	< 1e-07	3.9e+06	0.1 to 0.2			
B4					0.45	0.00049	1.1e+06
B5					0.25	0.00031	1.2e+06
B6					0.36	0.0004	940000
B7	0.00443	1.69e-05	3.82e+06	~0.08			
B8					0.71	0.00045	700000
B9					0.6	0.00046	770000
B10					0.33	0.0002	
